Test results reported in the supplement of paper PMC11780869.

Test system: Bacillus subtilis
Assay: cleaved RNA product abundance (RNA/gDNA barcode ratio) relative to median wild-type variant (ratio to wild type); higher = more accumulation of the downstream cleavage product
Conditions: cleavage site: cggR-gapA (positions -7 to +36 mutated)
Outline: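 Oligos with a 9% error rate were used to build barcoded, mutagenized RNase Y cleavage-site windows within truncated aprE or tetM reporter mRNAs, which were integrated into the B. subtilis chromosome. Cultures were grown in LB at 37°C between OD600 0.0003 and 0.3. Cleaved RNA was gel-selected, reverse transcribed and barcode-sequenced, as were genomic DNA barcodes, and UMIs were collapsed. Cleaved product abundance is the scaled RNA:gDNA barcode ratio, with the median construct carrying the unmutated site as reference.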

[1] = experiment (reporter, strain, medium): exp 2b: truncated aprE reporter, strain BJT200
[2] = experiment (reporter, strain, medium): exp 4a: truncated aprE reporter, strain BJT201 with 2% xylose (RNase J1 expressed)
[3] = experiment (reporter, strain, medium): exp 6: tetM reporter, strain 168

| Sequence | cleaved RNA product abundance [1] | cleaved RNA product abundance [2] | cleaved RNA product abundance [3] |
| --- | --- | --- | --- |
| ACAGACGAAGGAGCCGCAAAGAAGTTATTAAGGTATGAATAATCCCTCTATATAAATATCTCTCACTTATTTAAA | 0.0999 | 0.11 | – |
| ACAGACGAAGGAGCCGCAAAGAAGTTATTAAGGTATGAATAATCCCTGAATATAAATATCTCTCACTTATTTAAA | 0.0773 | 0.0951 | – |
| ACAGACGAAGGAGCCGCAAAGAAGTTATTAAGGTATGAATAATCCCTTAATATAAATATCTCTCACTTATTTAAA | 0.709 | 0.461 | 0.236 |
| ACAGACGAAGGAGCCGCAAAGAAGTTATTAAGGTATGAATAATCCGTCAATATAAATATCTCTCACTTATTTAAA | 0.0647 | 0.0909 | 0.0676 |
| ACAGACGAAGGAGCCGCAAAGAAGTTATTAAGGTATGAATAATCCTTCAATATAAATATCTCTCACTTATTTAAA | 0.145 | 0.126 | – |
| ACAGACGAAGGAGCCGCAAAGAAGTTATTAAGGTATGAATAATCGCTCAATATAAATATCTCTCACTTATTTAAA | – | 0.0909 | – |
| ACAGACGAAGGAGCCGCAAAGAAGTTATTAAGGTATGAATAATCTCTCAATATAAATATCTCTCACTTATTTAAA | – | 0.162 | – |
| ACAGACGAAGGAGCCGCAAAGAAGTTATTAAGGTATGAATAATTCCTCAATATAAATATCTCTCACTTATTTAAA | 0.0842 | 0.156 | – |
| ACAGACGAAGGAGCCGCAAAGAAGTTATTAAGGTATGAATACTCCCTCAATATAAATATCTCTCACTTATTTAAA | 0.0931 | 0.135 | – |
| ACAGACGAAGGAGCCGCAAAGAAGTTATTAAGGTATGAATATTCCCTCAATATAAATATCTCTCACTTATTTAAA | – | 0.0859 | – |
| ACAGACGAAGGAGCCGCAAAGAAGTTATTAAGGTATGAATCATCCCTCAATATAAATATCTCTCACTTATTTAAA | – | 0.176 | – |
| ACAGACGAAGGAGCCGCAAAGAAGTTATTAAGGTATGAATGATCCCTCAATATAAATATCTCTCACTTATTTAAA | 0.0901 | 0.0732 | – |
| ACAGACGAAGGAGCCGCAAAGAAGTTATTAAGGTATGAATTATCCCTCAATATAAATATCTCTCACTTATTTAAA | 0.15 | – | – |
| ACAGACGAAGGAGCCGCAAAGAAGTTATTAAGGTATGACTAATCCCTCAATATAAATATCTCTCACTTATTTAAA | – | 0.107 | – |
| ACAGACGAAGGAGCCGCAAAGAAGTTATTAAGGTATGAGTAATCCCTCAATATAAATATCTCTCACTTATTTAAA | – | 0.224 | – |
| ACAGACGAAGGAGCCGCAAAGAAGTTATTAAGGTATGATTAATCCCTCAATATAAATATCTCTCACTTATTTAAA | – | 0.153 | – |
| ACAGACGAAGGAGCCGCAAAGAAGTTATTAAGGTATGCATAATCCCTCAATATAAATATCTCTCACTTATTTAAA | – | 0.126 | – |
| ACAGACGAAGGAGCCGCAAAGAAGTTATTAAGGTATGTATAATCCCTCAATATAAATATCTCTCACTTATTTAAA | 0.108 | 0.127 | – |
| ACAGACGAAGGAGCCGCAAAGAAGTTATTAAGGTATTAATAATCCCTCAATATAAATATCTCTCACTTATTTAAA | 0.0984 | 0.169 | – |
| ACAGACGAAGGAGCCGCAAAGAAGTTATTAAGGTCTGAATAATCCCTCAATATAAATATCTCTCACTTATTTAAA | – | 0.0753 | 0.101 |
| ACAGACGAAGGAGCCGCAAAGAAGTTATTAAGGTTTGAATAATCCCTCAATATAAATATCTCTCACTTATTTAAA | 0.102 | 0.144 | – |
| ACAGACGAAGGAGCCGCAAAGAAGTTATTAAGTAATAAATAATCCCTCAATATAAATATCTCTCACTTATTTAAA | – | 0.0519 | – |
| ACAGACGAAGGAGCCGCAAAGAAGTTATTAAGTAATGAATAACCCCTCAATATAAATATCTCTCACTTATTTAAA | 0.084 | 0.127 | – |
| ACAGACGAAGGAGCCGCAAAGAAGTTATTAAGTAATGAATAATCCCTCAATATAAATATCTCTCACTTATTTAAA | 0.102 | 0.099 | – |
| ACAGACGAAGGAGCCGCAAAGAAGTTATTAAGTCATGAATAATCCCTCAATATAAATATCTCTCACTTATTTAAA | 0.0957 | 0.106 | – |
| ACAGACGAAGGAGCCGCAAAGAAGTTATTAAGTGAAGAATAATCCCTCAATATAAATATCTCTCACTTATTTAAA | – | 0.0841 | – |

| Sequence | cleaved RNA product abundance [1] | cleaved RNA product abundance [2] | cleaved RNA product abundance [3] |
| --- | --- | --- | --- |
| ACAGACGAAGGAGCCGCAAAGAAGTTATTAAGTGACGAATAATCCCTCAATATAAATATCTCTCACTTATTTAAA | – | 0.0518 | – |
| ACAGACGAAGGAGCCGCAAAGAAGTTATTAAGTGAGGAATAATCCCTCAATATAAATATCTCTCACTTATTTAAA | – | 0.16 | – |
| ACAGACGAAGGAGCCGCAAAGAAGTTATTAAGTGATAAATAATCCCTCAATATAAATATCTCTCACTTATTTAAA | – | 0.103 | 0.113 |
| ACAGACGAAGGAGCCGCAAAGAAGTTATTAAGTGATAAATAATTCCTCAATATAAATATCTCTCACTTATTTAAA | – | 0.0999 | – |
| ACAGACGAAGGAGCCGCAAAGAAGTTATTAAGTGATCAATAATCCCTCAATATAAATATCTCTCACTTATTTAAA | 0.0674 | 0.137 | – |
| ACAGACGAAGGAGCCGCAAAGAAGTTATTAAGTGATGAAAAATCCCTCAATATAAATATCTCTCACTTATTTAAA | 0.118 | 0.0967 | – |
| ACAGACGAAGGAGCCGCAAAGAAGTTATTAAGTGATGAACAATCCCTCAATATAAATATCTCTCACTTATTTAAA | – | 0.109 | – |
| ACAGACGAAGGAGCCGCAAAGAAGTTATTAAGTGATGAAGAATCCCTCAATATAAATATCTCTCACTTATTTAAA | 0.0943 | 0.0723 | – |
| ACAGACGAAGGAGCCGCAAAGAAGTTATTAAGTGATGAATAAACCCTCAATATAAATATCTCTCACTTATTTAAA | 0.113 | 0.0945 | – |
| ACAGACGAAGGAGCCGCAAAGAAGTTATTAAGTGATGAATAACCCCTCAATATAAATATCTCTCACTTATTTAAA | – | 0.109 | – |
| ACAGACGAAGGAGCCGCAAAGAAGTTATTAAGTGATGAATAATACCTCAATATAAATATCTCTCACTTATTTAAA | 0.109 | 0.0926 | – |
| ACAGACGAAGGAGCCGCAAAGAAGTTATTAAGTGATGAATAATCACTCAATATAAATAACTCTCACTTATTTAAA | – | 1.16 | – |
| ACAGACGAAGGAGCCGCAAAGAAGTTATTAAGTGATGAATAATCACTCAATATAAATATCTCTCACTTATTTAAA | 0.81 | 1.13 | – |
| ACAGACGAAGGAGCCGCAAAGAAGTTATTAAGTGATGAATAATCCATCAATATAAATATCTCTCACTTATTTAAA | 0.153 | 0.165 | – |
| ACAGACGAAGGAGCCGCAAAGAAGTTATTAAGTGATGAATAATCCCACAATATAAATATCTCTCACTTATTTAAA | 0.0986 | 0.0805 | – |
| ACAGACGAAGGAGCCGCAAAGAAGTTATTAAGTGATGAATAATCCCCCAATATAAATATCTCTCACTTATTTAAA | – | 0.127 | – |
| ACAGACGAAGGAGCCGCAAAGAAGTTATTAAGTGATGAATAATCCCTAAATATAAATATCTCTCACTTATTTAAA | 0.143 | 0.146 | – |
| ACAGACGAAGGAGCCGCAAAGAAGTTATTAAGTGATGAATAATCCCTCAAAATAAATATCTCTCACTTATTTAAA | 0.102 | 0.124 | – |
| ACAGACGAAGGAGCCGCAAAGAAGTTATTAAGTGATGAATAATCCCTCAACATAAATATCTCTCACTTATTTAAA | – | 0.0935 | – |
| ACAGACGAAGGAGCCGCAAAGAAGTTATTAAGTGATGAATAATCCCTCAATAAAAATATCTCTCACTTATTTAAA | – | 0.0655 | 0.11 |
| ACAGACGAAGGAGCCGCAAAGAAGTTATTAAGTGATGAATAATCCCTCAATACAAATATCTCTCACTTATTTAAA | 0.102 | 0.057 | – |
| ACAGACGAAGGAGCCGCAAAGAAGTTATTAAGTGATGAATAATCCCTCAATAGAAATATCTCTCACTTATTTAAA | – | 0.0533 | – |
| ACAGACGAAGGAGCCGCAAAGAAGTTATTAAGTGATGAATAATCCCTCAATATAAAAATCTCTCACTTATTTAAA | – | 0.124 | – |
| ACAGACGAAGGAGCCGCAAAGAAGTTATTAAGTGATGAATAATCCCTCAATATAAACATCTCTCACTTATTTAAA | – | 0.116 | – |
| ACAGACGAAGGAGCCGCAAAGAAGTTATTAAGTGATGAATAATCCCTCAATATAAATAACTCTCACTTATTTAAA | – | 0.119 | – |
